# Assay results: US20170258948A1 (Bristol-Myers Squibb, published 2017)
# B1: ATI-965 (designed binder)
# chain: MGVSDVPRDLEVVAATPTSLLISWTAYDSVDKYYRITYGETGGNSPVQEFTVGPRHHTATISGLKPGVDYTITVYAVYHTEPGYHAHMPISINYRTEIDKPSQHHHHHH
# notes: 10Fn3 Adnectin
# B2: ATI-966 (designed binder)
# chain: MGVSDVPRDLEVVAATPTSLLISWHRFSSIMAYYRITYGETGGNSPVQEFTVAGSVNTATISGLKPGVDYTITVYAVTIHNVSFPISINYRTEIDKPSQHHHHHH
# notes: 10Fn3 Adnectin
# B3: ATI-967 (designed binder)
# chain: MGVSDVPRDLEVVAATPTSLLISWQGQLSPSFYYRITYGETGGNSPVQEFTVPVASGTATISGLKPGVDYTITVYAVTSHGIYFYAPISINYRTEIDKPSQHHHHHH
# notes: 10Fn3 Adnectin; also called parent of ADX_5417_E01
# B4: ATI-968 (designed binder)
# chain: MGVSDVPRDLEVVAATPTSLLISWIAPFYNVIYYRITYGETGGNSPVQEFTVPGTGYTATISGLKPGVDYTITVYAVTDGASIASYAFPISINYRTEIDKPSQHHHHHH
# notes: 10Fn3 Adnectin; also called ADX_1760_C01
# B5: ADX_5322_A02 (designed binder)
# chain: MGVSDVPRDLEVVAATPTSLLISWSYDGPIDRYYRITYGETGGNSPVQEFTVPPDQKTATISGLKPGVDYTITVYAVRLEEAHYNREFPISINYRTPCHHHHHH
# B6: ADX_5417_E01 (designed binder)
# chain: MGVSDVPRDLEVVAATPTSLLISWRAQLSPSFYYRITYGETGGNSPVQEFTVPNDVMTATISGLKPGVDYTITVYAVTTHGVYFYSPISINYRTPCHHHHHH
# B7: ATI-964 (designed binder)
# chain: MGVSDVPRDLEVVAATPTSLLISWSYDGSIERYYRITYGETGGNSPVQEFTVPPDQKTATISGLKPGVDYTITVYAVRLEEAHYYRESPISINYRTEIDKPSQHHHHHH
# notes: 10Fn3 Adnectin; also called parent of ADX_5322_A02
# B8: ^64Cu-A02-NODAGA (designed binder)
# chain: GVSDVPRDLEVVAATPTSLLISWSYDGPIDRYYRITYGETGGNSPVQEFTVPPDQKTATISGLKPGVDYTITVYAVRLEEAHYNREFPISINYRTPC
# modifications: C-terminal cysteine (of the added PC) linked to maleimide-NODAGA chelating ^64Cu
# B9: cold (unlabeled) A02 Adnectin (designed binder)
# chain: EVVAATPTSLLISWSYDGPIDRYYRITYGETGGNSPVQEFTVPPDQKTATISGLKPGVDYTITVYAVRLEEAHYNREFPISINYRT
# B10: ^18F-A02 Adnectin ([^18F]-A02-4PEG-DBCO-FPPEGA) (designed binder)
# chain: B8 chain
# modifications: C-terminal cysteine linked to Maleamide-DBCO-FFP(18F) (maleimide-PEG4-DBCO clicked with [^18F]-FPPEGA)
# B11: ^64Cu-E01-NODAGA (designed binder)
# chain: GVSDVPRDLEVVAATPTSLLISWRAQLSPSFYYRITYGETGGNSPVQEFTVPNDVMTATISGLKPGVDYTITVYAVTTHGVYFYSPISINYRTPC
# modifications: C-terminal cysteine (of the added PC) linked to maleimide-NODAGA chelating ^64Cu
# notes: Modified E01 (ADX_5417_E01 with N leader and C-terminal PC); also called ^64Cu-E01 anti-PD-L1 Adnectin
# B12: ATI-1420B09 (designed binder)
# chain: MGVSDVPRDLEVVAATPTSLLISWHKFSSLMSYRITYGETGGNSPVQEFTVGSVNATISGLKPGVDYTITVYAIHNVGFISINYRTEIDKPSQHHHHHH
# notes: 10Fn3 Adnectin
# B13: ATI-1420D05 (designed binder)
# chain: MGVSDVPRDLEVVAATPTSLLISWTAYYSTIKYRITYGETGGNSPVQEFTVGPKHHATISGLKPGVDYTITVYAYNTKPGYHAHQISINYRTEIDKPSQHHHHHH
# notes: 10Fn3 Adnectin
# B14: ATI-1421E04 (designed binder)
# chain: MGVSDVPRDLEVVAATPTSLLISWSYNGPIEYRITYGETGGNSPVQEFTVPDQQATISGLKPGVDYTITVYALEEAHYSRQSISINYRTEIDKPSQHHHHHH
# notes: 10Fn3 Adnectin; also called AT1-1421E04
# B15: ADX_5322_A02 (Cys-Capped) (designed binder)
# chain: B5 chain
# modifications: Cys-Capped (so in the source); capping group not stated
# Molecular target: T1, human PD-L1 (Programmed Death Ligand-1), protein used in Biacore and ELISA (human, UniProt Q9NZQ7 19-239)
# T1 construct: also called hPD-L1; CD274
# T1 sequence (Q9NZQ7 19-239 limits assumed): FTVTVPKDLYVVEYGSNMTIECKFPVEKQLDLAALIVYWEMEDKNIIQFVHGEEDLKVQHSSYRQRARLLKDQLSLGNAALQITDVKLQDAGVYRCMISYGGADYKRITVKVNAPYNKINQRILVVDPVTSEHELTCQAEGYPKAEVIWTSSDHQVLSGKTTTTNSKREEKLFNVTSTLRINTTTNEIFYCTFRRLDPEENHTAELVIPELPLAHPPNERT
# Experiment: SPR (Biacore), human PD-L1
Binder,Kd [nM],koff [s⁻¹],kon [M⁻¹ s⁻¹]
B1,0.71,0.00033,460000
B2,0.028,6.9e-05,2.5e+06
B3,0.032,6.7e-05,2.1e+06
B4,0.16,0.00012,750000
B5,0.228,0.00057,2.5e+06
B6,0.013,0.00026,2e+07
B7,0.21,7.7e-05,360000

# Molecular target: T1, human PD-L1 (Programmed Death …)
# Experiment: summary sentence on the binding data (Biacore); limit tied to E01 by Table 2
row,Binder,Kd [nM]
1,B6,< 0.1

# Molecular target: T2, human PD-L1 expressed on cells (hPD-L1-positive L2987 human lung carcinoma cells); L2987 xenograft and human … (human, UniProt Q9NZQ7 19-290)
# T2 sequence (Q9NZQ7 19-290): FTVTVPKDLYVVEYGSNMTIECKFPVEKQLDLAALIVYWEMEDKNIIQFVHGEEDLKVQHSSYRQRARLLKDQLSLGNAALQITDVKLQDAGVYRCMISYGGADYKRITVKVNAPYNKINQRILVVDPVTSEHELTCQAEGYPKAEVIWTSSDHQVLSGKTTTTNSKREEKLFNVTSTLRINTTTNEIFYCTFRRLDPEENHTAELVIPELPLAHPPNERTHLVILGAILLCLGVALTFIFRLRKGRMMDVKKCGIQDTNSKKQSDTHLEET
# Experiment: cell-based or functional assay
Binder,PET radiotracer uptake in hPD-L1(+) L2987 xenografts relative to hPD-L1(-) HT-29 xenografts in mice (final 10 minutes of the 2 h time-activity curve) [fold],PET uptake of ^64Cu-A02 in hPD-L1(+) L2987 relative to hPD-L1(-) HT-29 xenografts when co-injected with 3 mg/kg unlabeled A02 Adnectin [fold],"maximum radiotracer uptake ratio in hPD-L1(+) L2987 xenografts vs. hPD-L1(-) HT-29 xenografts (PET, mice) [ratio]"
B8,3.05,–,–
B9,–,1.04,–
B10,–,–,3.53

# Molecular target: T1, human PD-L1 (Programmed Death …)
# Experiment: summary sentence on the binding data (Biacore); limit tied to A02 by Table 2
row,Binder,Kd [nM]
1,B5,< 1

# Molecular target: T1, human PD-L1 (Programmed Death …)
# Experiment: ELISA, inhibition of binding of human CD80 (B7-1) to human PD-L1
row,Binder,EC50 [nM]
1,B1,0.21
2,B2,0.028
3,B4,0.056
4,B7,0.041

# Molecular target: T2, human PD-L1 expressed on cells …
# Experiment: radiotracer binding to cells on ice, gamma counting
# Description: After the incubation period, cell samples were centrifuged at 200×g and the supernatant was discarded. Cell pellets were resuspended in 1 mL PBS+0.5% BSA and the wash procedure repeated for a total of 3 washes. Following the final wash, cells were again centrifuged at 200×g and the supernatant was discarded. The radioactivity of the remaining cell pellets was then measured by gamma counter.
row,Binder,fold higher cell associated radioactivity against hPD-L1-negative HT-29 cells [fold]
1,B11,44.6

# Molecular target: T1, human PD-L1 (Programmed Death …)
# Experiment: method not stated (Table 1, binding properties of anti-PD-L1 Adnectins)
row,Binder,Kd [nM]
1,B12,2.5
2,B13,9.5
3,B14,5.6

# Molecular target: T2, human PD-L1 expressed on cells …
# Experiment: cell binding to human PD-L1 positive L2987 cells; Cys-capped form; Cys-capped form
row,Binder,EC50 [nM]
1,B15,0.43

# Molecular target: T3, cyno PD-L1 (cyno (cynomolgus monkey), UniProt G7PSE7 19-239)
# T3 construct: also called cynomolgus PD-L1
# T3 sequence (G7PSE7 entry or part of it): as the sequence (Q9NZQ7 19-239 limits assumed) above, with A33T, A34S, S62N, R68Q, Q82R, F173L, T185A, T192I, H215L counted along it
# Experiment: SPR (Biacore), cyno PD-L1
row,Binder,Kd [nM]
1,B1,0.8
2,B2,0.038
3,B3,0.06
4,B4,0.11
5,B7,0.14
